Source: the DeepSol protein solubility set

Assay: soluble on expression in E. coli; label from the status in PepcDB or PDB records

| Sequence | soluble on expression in E. coli |
| --- | --- |
| MGSDKIHHHHHHMERITILHTNDLHSHFENWPRIRRYLKTTRQQVMADGATVYTFDLGDHVDRVHPVSEATNGQQNIQLMNQIGYDGVTIGNNEGLGFVRAQLDHLYDHANFPVILGNLRIPDTHELPDWAIDHRLLTTAAGTRLLVLGLTAPYHLTYPLAGWQILDVQPTLAALLHRFAGQFDVCVLLSHLGLDVDRLLAKRFPQVTVIIGSHTHHLLPHGEHDHQSLLAAAGKFGRYIGKIELSITPDHQVKSAVASVTETATLPVADGDTAEITSLQDLGESILSEQRVANLPTAMEADPTGQPRLVREGLHAIAEYAGTQAAILNAGLFLQDLPSGVVNQNQLHQLLPHNMHVMTVTLSGYDLWRLVQEFELARLFLRRFPQKGMGFRGKIFGELNYLGLAYDAVTHQVTWRGEPLSPTRQYRIAMVDHYLFIPFFPTISIVGKNQILYDDLLREVFAQYLARHYPLT | not soluble |
| MNLITDETLVEPNLPTFEELTRVHDRKYLKSVRNPIKAAQIVEIPFVGCLPPCIIESKLLHPLRLQAGGTVLAANLALKHGWAINVGGGFHHASHSGGGGFCFYADITMAIFDLFDKKAIANAIVVDLDAHQVLEKTFERI | not soluble |
| SLAQIPRPEIMDEDQLMKEVLDKFVNCHEQTYEEFLSTFTHLSKEDNVAKWGAHGTDSSENIFSTVKWNHKTESNGCHFRNTTIFLHTSSEHSEEDQIVIDEGHKVGSSFQGDMTRAGKVKVDNFLDLEDVDMEEESKPQMNKDCLLLPGEVEQDISTSVPSYDPSVDLPLTSEVRPKPAVGRTQKQTEEILGDEVQPFFLDEEFDYDNVTLTPKFTAGEIATIQELSKQKRVGSGTNVCELHD | soluble |
| MYIKNSERLKFRLMDSKDAQELWEIDQDPTVMKFLNGGNPTSIEQVNSVFIPRMNKYRNSELGWGIWQVSNKVTDEYLGWVLIRPMSFFTESPNTKDLELGWRFFQSTWGKGYATEAAIAIRDAVVANTDVTHVSALAVADNLASVGVMKKMGMHFVRAYLHEDPIGDFDAVHYQMSVRNK | not soluble |
| MIMKNGIVYFVGAGPGDPGLLTIKGKQALKEADVILYDRLANPKLLEFASPDCQFIYCGKLPNRHFMKQKEINALLVEKALNGLTVVRLKGGDPSVFGRVGEEADALHEHGIRYEMVPGITSGIAAPLYAGIPVTHRDFASSFAMITAHDKSLKGTPNLDWEGLARSVQTLVFYMGVKNLSYICQQLISYGKSPSVPVIVIQWGTWGRQRSVKGTLENIQQKVQEHQITNPAIIVIGDIVNFQTHSWFESKPLIGRHLMVVTHGEDEDPLADKLRDSGADLIEWPKWRTENMPVNEEILRKIGTFEDVFFTSRRAVCEFFRALASQKIDIRQLTAKLSAASEQAKTELEKRGFLVTAIQPDSEKRLVVGSRHAVENMQKHESCSFYITHENVIDDRFTHMIQRTISESPLHMVICPNKLSVQQLINGGEQIGILPEPSASRPPIVCIGDDSAAGIYGFTAVQEQDELLAFIHNQHAEKKLL | not soluble |
| MGSDKIHHHHHHDLDENVYDKLPTDEFGTTEKQINAIMAPAYQSLKNMLAYDGPWGAADMTADILIAPTRVGGDWWDGGQYMEQCMHSWKPNSYSVENCWTYCTEGLTTVNSVYNIIEKSEAMSDELKLQYLSELRGLRAFWYYVIVDIFGNAPLVTDFEDTSLPSITSRADLYKYVVKELTEIIPNLRSDVSDASYGKFTQGAARMVLAKMYLNAEEWIGEPNWKGVVEQCDEIMKLEYIIEPNWKTNFEVHNEVSREIIFPICYKASDAWGNSIHLWTLHYLDPDVLGFTGGMWNGINAQPDFVRTFDTEDPRYEGSFLIGPMIDPSTGEILKTTLGHDLIHTIDLNVVPGTEKTDADGNLTPWGEVHQEDGARINKWVYEKGMQNTNMENDIAIFRLADVYLMKAEALVRMGGDLGEATRLVNAIRERAYGNSDHNYTSVTLDDIYNERGYELAFEFVRRQDMIRFGTYLKPRYMKPKQTPEYRKIFPIPFKAWQKNNNLVQNPGYPAF | not soluble |
| MGSDKIHHHHHHMSELNNQLWASADILRGKMDASEYKNYLLGLVFYKYLSDQELRAVYEEEQGKVAEYPSRDEQFSGLLDWYNDDAAGIREIISKKLGYFIEPDSLFYTFRKKAGEYELHISDIQNAFIELGRQGEHFAGLFDDVDLASTKLGANAQQRNVTITEVIKALDEIDLFGHDGDVIGDAYEYLIGQFAAGAGKKAGEFYTPQAVSKIISEIVAIGQEETAPFHIYDPTMGSGSLMLNIRRFVKNPGQVHYHGQELNTTTYNLARMNLILHNVEQSQMRLRNGDTLDEDWPTDEPYLFNAVVMNPPYSANWSADGKFLSDPRFEQYGKLAPKSKADFSFLLHGFYHLNEKGTMGIVLPHGVLFRGASEGVIRKTLLDMGAIEAVIGLPANIFYGTSIPTVVLILKKNRAKRDVLFIDASKAFEKQKNQNCIRSQDIRKIVDTYKKRSSSPQYAHLADYDEIVRNDYNLNIPRYVDTFEEEAPIDIVALSKEITDLNLQIKQREAEFLGMLSQLAITDETKELIEATKGIFM | not soluble |
| MREDHSPRRNNTIENTLTELLPNRLYFGCFPNPDAIDKSDKSVKKTCFININNKFHYEPFYEDFGPWNLSVLYRLCVQVGKLLEVEEKRSRRVVLFCQDDGTGQYDKIRVNTAYVLGAYLIIYQGFSADDAYLKVSSGETVKFVGFRDASMGSPQYLLHLHDVLRGIEKALKFGWLDFSDFDYEEYEFYERVENGDFNWIIPGKILSFCGPHNESREENGYPYHAPDVYFDYFRENKVSTIVRLNAKNYDASKFTKAGFDHVDLFFIDGSTPSDEIMLKFIKVVDNTKGGVAVHCKAGLGRTGTLIACWMMKEYGLTAGECMGWLRVCRPGSVIGPQQPYLIEKQKFCWSLSQSNGVHLTQNKEEKRNVRRLVNQVDDINLGEERISPKSRENTRPNILRRRVQVQNGRSTAPVTIAPAGTSESRRSTKPSRVVDETALDDQGRSQGDRLLQLKAKHQHESETTSPNSSSSRRFVKSSTPQMTVPSQAYLNRNREPIIVTPSKNGTSSGTSSRQLKTTPNGNVAYRTRNSSGNTTSTLTRTPASAVFPSMASRRSETTRYLSPTTPIKPMSPSYTDGTSPRYKARLRSENPIGSTTSTPFSLQPQFGLVRVPPDSPHSIMAHRPPPTTSSRAPLSPHNYSTTQGYSTSSRGLYGDKKPLARGSVSTSTLPSMYMTRKMSENGAVEVEITTSYVEDRKAAEQIDPSSTPPEPKRRFVLVSRKIVSKEVPSAGPTCSNDPRLNYASTRKLPIKISHRLCQICRTIKPIADISMMTDENEKLFILLAAIFQRKLFVEECTRIYKQPAVYTCSSHYSEASTAILNMFGVGGALRIFRARPRKVSQVEKFASHLMGKQFEEDKLIHSAYMFVLNHPEAGAVTGPIIKEEDIPFEETVECSSTTAVNGILPKCFRQPRKQKLEEDSCSSSILRIIKKTTPSLPNRSYTMINQNMEHPLQCCYCLEVYEKRYMTQVPKTEQRIARWVAILGEQFRIRLRMKPANYMCRKHFPQADFSSRGRLLKTAVPNVVSQEKVLAFKLEGNTFVEVKEDNTNIKMEKGTDSEIDIEN | not soluble |
| MLAQRGTFAECGAEVLAVAMSPGRRHITKPVCEITFGLRESNVLTSTMVLNAGAGVPHDAPASGGTLFGLTDKEVEQMSNFKLLVIHLGGVKNHLIYKARLILRNVNKPCIIICESPVDCEDFAKIGVKTSKVMPSEEDVKTEGHIVDIVSGVIRGETISQEKLDEIIRKVKLALGDALEHHHHHH | soluble |
| MGSDKIHHHHHHMRVSSDDALFYRIEAFFRGRAYGPHRHDTYAVGITTAGIQSIRYRGELVHSSPGDTVVIHPDEIHDGRAGTVAGYCYRIVHLQPEALQQILGQTSLPFIKEGVSQNAQLYQAIWAMLREFDRPLEPLERTDLLFDLAMALQAAAGTAKAKHTGNIKAALIARDCIRSAPSQRIELDVLARESGRDRWSLSRDFRQFFGTSPSRYMTMRRLDIARRLMSNGTPLAECAVAVGFADQSHMSRQFVEAFGLTPTRWLTMLR | not soluble |
| MAEPAQETPCFSMEKAERAFLDGNFEEALKHFFVCIRMLPVERRGVYEDQFAAALHGWIALDHNNASRAVCLYPQIKELFPETIRTKIALIRAVQGTEQSKWLLNCLPICKDSMDLATKPEDLVALRIARVNLTTIPFPQWHIRMINDVKRNEAFAKALNDTIKSRITVVFDIGSGTGILSAIAARKTNLVTALEENMCLTMISKEVLKRNGVESRVNVHAKNSTYFETCEKADIVVSETLDCCVFGEKIVETFLDAHVRFSHDRTIFIPHQATVYVRLFSCREIFDIHCQDYGGVRYRSEYVKIGESDAEQPYWCASAADYSQFELLSGSVAMHSVDFSSIANLKDSLANSNSFKIRPAKDGVAHGFSVHFTSDLTGHGDNIIDSSKSRAWDLGIIPFKEPCLVKCDKEYEGSWKLLNNRLDVYNDFYDENLQKHEDSLRYETASLDQLQKIRDDSYFKAMMGEIDPIELPFTRDISSSIPAQCVLNTVESQTPIRHLITNFCRYDGTLDQETFFRIEEFVGFRDHVQKIVPTKFRILGHLFYSDRVHFDARPDPSAHCQVDLSTVRSFNLREMRDIRLTQREDIVMASKEFVLYDFNISAEKFRQDTYITVTQDVTVQPTRPIADGVIYEFEILGIRNTKLRPVAAFLFPERVNTNPDMTVVFDLHLGEMLISLKDLP | not soluble |
| KRKERLSARLGDILSQLYLSSATLKRFEQDGRPAEDLALVHWGLQDSLKQAEIAIDEFLANFPNKVIGRTLRVLIMPFGRVRKAPSDKLDSKVARILQTPSATRSRIGRGQYLEPTEHNPAGKIELALSVILQAEPVFDKVCKAQGKRRPFLRLDMIAQEGLEQGVITQEEAELLREAEQHRLDTINVDDFEPELLAAKPLYPQMDSVA | not soluble |
| MMFWDSEVAKRLLAQGALRPLDVQFARFIGKQAVLAGHNAAESELLSVLSAALSAELGRGHICLPLCDAQGNRCDLAALIGLYGEASLQHSERWLAVDWQALLQASPLVGQQGEAVPLMFDGSRLYLHRYWHYEKQLAARLTELAAPQRLSPAELANLRERLNTLFARDYLGLWQALQQKPLSSVERIQLLNDRLDVVESDALDWPAIEAVVEKAQRAADLQALEQLIPLTHCLNWQKVAAAVALTRRFAVISGGPGTGKTTTVTKLLAALISQSMAQGKVPEIKLIAPTGKAAARLTESMGKAVSQLAIEPEIAAAIPSSSSTIHRLLGAIPGSAEFRHHTRNPLHLDLLVVDEASMVDLPLMVKLVEALPKHARLILLGDKDQLASVEAGAVLGDICTFLNQGYGHEQGAQLAELTGFATLRQTASKTVNPVADCLCMLQKSYRFDARSGIGQLAKAINSGSPARVEAVWQQSFSDIEHFALSGEHYQQLLQTLVQAYRPYLSLLNQPTEQFESTQQSMLTLAKSALDAFSRCRLLCALREGDFGVMGLNTRIERALNAHKLIKTQEEIWYHGRPIMVTRNDHGLGLYNGDIGLCMRDRDDDQGRLKVYFELPDGSIKAVLPSRVPQHETAYAMTIHKSQGSEFDLTLLILPPDYSPILTRELVYTGITRAKKQLKLYCDNKVLQRAIKVKTQRASGLVARLEQ | not soluble |
| MEQQLTIEMIADAFSYDITGFDCGEEALNTFLKEHLKRQHDGQILRGYALVSGDTVPRLLGYYTLSGSCFERGMLPSKTQQKKIPYQNAPSVTLGRLAIDKSVQGQGWGEMLVAHVMRVVWGASKAVGIYGLFVEALNEKAKAFYLRLGFIQLVDENSNLLFYPTKSIEQLFTDDES | not soluble |
| MLSKFVVVEVSNSNNTMTLVEYLVTHGFDKFAVVTDLVDHPSFKYKDGSSSPESPSTTASTAAQHTPPRTAVSTPTSINTPVPPHQNKQRHSIDKIAANLSTKKVSPSSIEKQLQRTSHNPLHQLSTPHALSQLQKLLEEQHKINQMNIQKKEQERQQAEIQRILLQQANAAQINHSFGLERLTPEYDDNHHSETISKASSEDLKTEPDSTDFGLGTSDDQVRASMLHLLHPVFAPAFGMLDAENIFGAASKPTTPASKRRNTDSNGAPSKKHRWLPVNELEESRSSRGKNCGRVHCKATYKCALCGKPTTLNSTGSRWNLLRHVIMIHSDCKPYKCWDCDFTGIKSNVISHARQCRHNAEDAHDITTDEMRAEWNLRLHECFPDYVRAKERGWQPEEVTVKKEEVEESPTLVKQELTLVKQEPTFAEQLEPMAQPLV | soluble |
